The chains are these.
B1: Glucocorticoid receptor, residues 419 to 494; numbered along this chain, P04150 (parent)
chain: KLCLVCSDEASGCHYGVLTCGSCKVFFKRAVEGQHNYLCAGRNDCIIDKIRRKNCPACRYRKCLQAGMNLEARKTK
B2: E3 ubiquitin-protein ligase NEDD4-like, residues 539 to 589; numbered along this chain, Q96PU5 (parent)
chain: KTSLNPNDLGPLPPGWEERIHLDGRTFYIDHNSKITQWEDPRLQNPAITGP

± gives the uncertainty stated by the source.

One data set covers variants of B1. Description: abundance fitness (aPCA) (normalised: wild type 0, dead -1); higher = more abundant; growth selection in yeast, the domain comes from the species named. The conditions noted are these: Homo sapiens.
Regarding D48G, the abundance fitness is -0.334 ± 0.034. Turning to D48V, the abundance fitness was -0.596 ± 0.059. As for D48Y, the abundance fitness is -0.139 ± 0.1. For D48Q, the abundance fitness was -0.385 ± 0.061. Consider T19W, for which the abundance fitness was -0.743 ± 0.11. Consider S11G, for which the abundance fitness was -0.076 ± 0.036. Turning to S11H, the abundance fitness is 0.008 ± 0.064. Consider S11V, for which the abundance fitness was -0.005 ± 0.037.

As to S11P, the abundance fitness was -0.096 ± 0.065. For S11A, the abundance fitness was -0.043 ± 0.036.

As to N36V, the abundance fitness was -0.106 ± 0.039. N36E: the abundance fitness worked out at 0.002 ± 0.042. On to N36P, for which the abundance fitness is -0.05 ± 0.047.

Consider N36Y, for which the abundance fitness was -0.259 ± 0.13. N36I: the abundance fitness was -0.054 ± 0.078. As to N36Q, the abundance fitness was -0.034 ± 0.056. As to N36S, the abundance fitness turned out to be 0.022 ± 0.038.

With N36L, the abundance fitness was -0.036 ± 0.036. For C13A, the abundance fitness was -0.02 ± 0.038. Consider C13F, for which the abundance fitness is -0.005 ± 0.074. Turning to C13W, the abundance fitness is -0.055 ± 0.041. For the variant M68W, the abundance fitness was -0.846 ± 0.1. Turning to M68Y, the abundance fitness was -0.215 ± 0.085. Take M68E: the abundance fitness is -0.529 ± 0.086. On to M68I, for which the abundance fitness was -0.422 ± 0.17.

As for R73G, the abundance fitness was -0.021 ± 0.032. Consider R73H, for which the abundance fitness was -0.109 ± 0.065. For R73S, the abundance fitness came to 0.003 ± 0.037. Take R73D: the abundance fitness is -0.125 ± 0.076.

For the variant R73M, the abundance fitness was found to be 0.012 ± 0.05.

Consider R73E, for which the abundance fitness is -0.015 ± 0.042.

As for R73C, the abundance fitness is -0.019 ± 0.052. In the case of R73F, the abundance fitness was -0.059 ± 0.059.

With Y60C, the abundance fitness was -0.694 ± 0.16. For Y60I, the abundance fitness was -0.09 ± 0.078.

Take Y60W: the abundance fitness was -0.036 ± 0.041. With Y60F, the abundance fitness worked out at 0.004 ± 0.085. For the variant Y60G, the abundance fitness is -0.809 ± 0.086. As for Y60S, the abundance fitness was -0.535 ± 0.06.

For the variant A66S, the abundance fitness was -0.058 ± 0.039. Turning to A66C, the abundance fitness is -0.037 ± 0.048. With I47S, the abundance fitness was -0.252 ± 0.04. The same measure, in the same setting: in the case of I47C it was -0.438 ± 0.089; in that of I47H, -0.304 ± 0.18. In the case of I47P, the abundance fitness was -0.442 ± 0.063. Still for that read-out and setting: with L64D the figure was -0.296 ± 0.064; with L64F, -0.107 ± 0.069; with L64E, 0.016 ± 0.039. In the case of L38A, the abundance fitness was 0.01 ± 0.034. Consider L38D, for which the abundance fitness was determined as 0.102 ± 0.063. L38H: the abundance fitness stood at 0.035 ± 0.08. In the case of R51M, the abundance fitness turned out to be 0.042 ± 0.05. In the case of R51A, the abundance fitness was -0.072 ± 0.037.

Turning to S7Y, the abundance fitness is -0.109 ± 0.053. In the case of S7H, the abundance fitness was 0.021 ± 0.09. On to S7D, for which the abundance fitness worked out at 0 ± 0.053. For S7V, the abundance fitness is -0.374 ± 0.046. Turning to S7K, the abundance fitness was found to be 0.032 ± 0.046. As to S7T, the abundance fitness is -0.02 ± 0.051.

For the variant S7A, the abundance fitness was determined as 0.098 ± 0.038.

On to G41L, for which the abundance fitness was -0.013 ± 0.035.

For the variant G41T, the abundance fitness is -0.04 ± 0.046. Regarding K53Q, the abundance fitness is 0.016 ± 0.043.

Turning to K53Y, the abundance fitness is -0.026 ± 0.066. As for K53A, the abundance fitness came to 0.014 ± 0.039.

As to K53R, the abundance fitness was -0.015 ± 0.03. Consider K53C, for which the abundance fitness is -0.263 ± 0.069.

As for K53I, the abundance fitness was -0.091 ± 0.076. For the variant K53D, the abundance fitness is 0.083 ± 0.088. On the same count and under the same terms, with E9N the figure was 0.12 ± 0.063; with C55M, -1.16 ± 0.2.

As to C55H, the abundance fitness was -0.911 ± 0.44. As for C55V, the abundance fitness is -0.739 ± 0.06. On to C55D, for which the abundance fitness was -1.13 ± 0.33. With C55F, the abundance fitness was -1.02 ± 0.3. Take K49Y: the abundance fitness was -0.077 ± 0.093. With K49R, the abundance fitness was -0.004 ± 0.029.

For the variant K49D, the abundance fitness was -0.164 ± 0.069.

Regarding K49P, the abundance fitness is 0.016 ± 0.044.

Turning to G21Y, the abundance fitness is -0.031 ± 0.077. As for G21K, the abundance fitness worked out at 0.008 ± 0.045. As for G21M, the abundance fitness was -0.032 ± 0.05. In the case of G21D, the abundance fitness was -0.009 ± 0.062. Turning to G21H, the abundance fitness is -0.122 ± 0.072.

On to G21T, for which the abundance fitness was -0.031 ± 0.046. On the same count and under the same terms, with E71D the figure was 0.008 ± 0.048; with E71I, -0.016 ± 0.065. Turning to E71H, the abundance fitness was -0.09 ± 0.061. On to E71R, for which the abundance fitness was -0.095 ± 0.033.

E71F: the abundance fitness was -0.072 ± 0.059.

Regarding E71P, the abundance fitness is -0.038 ± 0.05. The same measure, in the same setting: with E71G the figure was -0.009 ± 0.032. With F27S, the abundance fitness was -0.681 ± 0.079. With F27D, the abundance fitness was -0.912 ± 0.18. With T75C, the abundance fitness was -0.075 ± 0.061. Consider T75V, for which the abundance fitness was -0.064 ± 0.048. Same read-out and setting: in the case of T75D it was 0.023 ± 0.069; in that of T75E, 0.032 ± 0.063; in that of T75K, 0.007 ± 0.076. As to I50V, the abundance fitness was determined as 0.013 ± 0.036.

As to I50D, the abundance fitness was -0.032 ± 0.073. For the variant I50T, the abundance fitness is -0.007 ± 0.047. As to I50Q, the abundance fitness amounted to 0.046 ± 0.049. For I50Y, the abundance fitness was -0.143 ± 0.21.

Regarding Q34D, the abundance fitness is -0.046 ± 0.074. Regarding Q34Y, the abundance fitness is -0.136 ± 0.095.

For Q34C, the abundance fitness is -0.028 ± 0.078. As for C58W, the abundance fitness is -1.08 ± 0.22.

C58V: the abundance fitness is -0.903 ± 0.11. On the same count and under the same terms, with C58K the figure was -1.06 ± 0.37; with C58M, -0.896 ± 0.17. For C58R, the abundance fitness is -1.04 ± 0.12. On the same count and under the same terms, in the case of C58I it was -0.81 ± 0.22; in that of C58Q, -0.768 ± 0.13; in that of C20S, -1.4 ± 0.35. In the case of C20Q, the abundance fitness was -1.04 ± 0.2.

Regarding C20G, the abundance fitness was -0.805 ± 0.12. With C20L, the abundance fitness is -1.14 ± 0.17. Take C20M: the abundance fitness is -0.651 ± 0.13.

N69W: the abundance fitness was -0.061 ± 0.043. Regarding N69D, the abundance fitness is -0.033 ± 0.07.

With N69V, the abundance fitness is -0.049 ± 0.036.

For the variant N69R, the abundance fitness was determined as 0.01 ± 0.033. As to C3Y, the abundance fitness is -0.764 ± 0.24. Regarding K76L, the abundance fitness was -0.001 ± 0.048.

With K76I, the abundance fitness was -0.277 ± 0.28.

For G67F, the abundance fitness was -0.447 ± 0.12. On the same count and under the same terms, with G67N the figure was -0.226 ± 0.1; with G67W, -0.656 ± 0.092; with K74H, 0.039 ± 0.16. The same measure, in the same setting: with K74N the figure was -0.01 ± 0.094; with K74F, 0.047 ± 0.077; with K74Q, 0.063 ± 0.057.

K74E: the abundance fitness was 0.091 ± 0.053. On the same count and under the same terms, with K74S the figure was -0.047 ± 0.046; with K74D, 0.19 ± 0.073. As to K74A, the abundance fitness was -0.033 ± 0.049. Still for that read-out and setting: with D8Y the figure was -0.409 ± 0.084; with D8I, -0.68 ± 0.2; with R61I, -0.083 ± 0.085.

For the variant R61V, the abundance fitness is 0.064 ± 0.035. Turning to L4M, the abundance fitness was found to be 0.001 ± 0.042. For the variant L4W, the abundance fitness is -0.068 ± 0.041. As to C6Q, the abundance fitness is -0.805 ± 0.16. As to C6P, the abundance fitness is -0.931 ± 0.17. For C6W, the abundance fitness is -1.03 ± 0.18.

As for L18T, the abundance fitness was -0.031 ± 0.058. Consider L18V, for which the abundance fitness was found to be 0 ± 0.041.

The variants in the next data set derive from B2. Described as above. Particulars: Homo sapiens.
With P51E, the abundance fitness is -0.109 ± 0.45. For P51V, the abundance fitness is -0.65 ± 0.45. Regarding P51R, the abundance fitness was -0.345 ± 0.25. Still for that read-out and setting: with P51C the figure was -0.232 ± 0.098; with P51S, -0.336 ± 0.12; with P51G, 0.13 ± 0.21. Regarding P51T, the abundance fitness was determined as 0.009 ± 0.18.

As for G50V, the abundance fitness was -0.064 ± 0.1.

For G50Y, the abundance fitness was -0.202 ± 0.17. With G50Q, the abundance fitness was -0.351 ± 0.2. G50P: the abundance fitness was -0.213 ± 0.17. G50R: the abundance fitness was -0.18 ± 0.055. Regarding G50S, the abundance fitness was -0.153 ± 0.093. Take G50H: the abundance fitness was -0.555 ± 0.31. In the case of G50L, the abundance fitness turned out to be 0.118 ± 0.08. Take G50M: the abundance fitness is -0.284 ± 0.39.

Take G50T: the abundance fitness was 0.166 ± 0.17.

For the variant G50W, the abundance fitness is -0.143 ± 0.1. In the case of G50K, the abundance fitness came out at 0.305 ± 0.45.
